Results from patent US7528244 (Amgen, dated 2009).

B1: caspase-3 (enzyme, UniProt P42574 1-277, looked up)
chain: MENTENSVDSKSIKNLEPKIIHGSESMDSGISLDNSYKMDYPEMGLCIIINNKNFHKSTGMTSRSGTDVDAANLRETFRNLKYEVRNKNDLTREEIVELMRDVSKEDHSKRSSFVCVLLSHGEEGIIFGTNGPVDLKKITNFFRGDRCRSLTGKPKLFIIQACRGTELDCGIETDSGVDDDMACHKIPVEADFLYAYSTAPGYYSWRNSKDGSWFIQSLCAMLKQYADKLEFMHILTRVNRKVATEFESFSFDATFHAKKQIPCIVSMLTKELYFYH
notes: also called caspase-3 precursor
B2: FADD (other, UniProt Q13158 1-208, looked up)
chain: MDPFLVLLHSVSSSLSSSELTELKFLCLGRVGKRKLERVQSGLDLFSMLLEQNDLEPGHTELLRELLASLRRHDLLRRVDDFEAGAAAGAAPGEEDLCAAFNVICDNVGKDWRRLARQLKVSDTKIDSIEDRYPRNLTERVRESLRIWKNTEKENATVAHLVGALRSCQMNLVADLVQEVQQARDLQNRSGAMSPMSWNSDASTSEAS
notes: also called Flag-tagged FADD; AU1-tagged FADD

Key:
CrmA = target: T1, CrmA (UniProt P07385 1-341); experiment: co-transfection and co-immunoprecipitation in mammalian cells
T1 construct: also called Myc-CrmA

Casper (192-480) [1] = target: T2, Casper (192-480) (human, UniProt O15519 192-480); experiment: anti-Flag immunoprecipitation, caspase-3 immunoblot, 293 cells
T2 construct: also called C-terminal protease-like domain of Casper
T2 sequence (O15519 192-480): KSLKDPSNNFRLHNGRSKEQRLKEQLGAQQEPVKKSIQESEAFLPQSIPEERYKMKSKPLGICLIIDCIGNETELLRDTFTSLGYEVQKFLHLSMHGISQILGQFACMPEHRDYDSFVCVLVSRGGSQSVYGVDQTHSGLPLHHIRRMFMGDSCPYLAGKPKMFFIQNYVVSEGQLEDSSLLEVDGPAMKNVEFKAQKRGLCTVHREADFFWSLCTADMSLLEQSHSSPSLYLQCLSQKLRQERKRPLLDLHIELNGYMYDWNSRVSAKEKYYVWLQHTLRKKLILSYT

Casper (192-480) [2] = target: T2, Casper (192-480); experiment: co-immunoprecipitation in 293 cells

Binder | binding result (CrmA) | binding result (Casper (192-480) [1]) | binding result (Casper (192-480) [2])
B1 | no binding | binds | 
B2 |  |  | no binding
